According to PMC9730451:

Target: MGAT1 (GnT1) (UniProt P26572)
Experiment: co-immunoprecipitation, western blot
Conditions: reference: wild type, mitotic; sites S12

- binding against the reference: stronger
Substance: MAN1A1 (Golgi α-1,2-mannosidase IA) (from UniProt P33908) S12A, mitotic
